The experiment has as its target recombinant human IL-17A (human) (UniProt Q16552). In words: cell-based or functional assay.

Drawing on patent US20160368957A1, this text covers IC50 of inhibition of IL-17A induced IL-6 production in NHDF cells (IL-17A 50 ng/ml) and IC50 value (nM), IL-6 production by NHDF cells with IL-17A (1 ng/ml) and TNF alpha for one substance.

Chain of recombinant human IL-17A (human) (Q16552 20-155 limits assumed): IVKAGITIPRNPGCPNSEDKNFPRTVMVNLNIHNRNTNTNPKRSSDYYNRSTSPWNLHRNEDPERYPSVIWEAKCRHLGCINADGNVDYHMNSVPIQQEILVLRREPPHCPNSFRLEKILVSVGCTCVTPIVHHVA

On to “human IL-17A receptor-Fc chimera (R&D Systems) (from UniProt Q96F46 33-320) (Fc fusion)”, for which the IC50 of inhibition of IL-17A induced IL-6 production in NHDF cells (IL-17A 50 ng/ml) came out at 1000 pM; the IC50 value (nM), IL-6 production by NHDF cells with IL-17A (1 ng/ml) and TNF alpha was 0.61 nM.
